Test [1] concerns the target T1, glycosylated human PAI-1 (active form) (human, UniProt P05121 24-402, glycosylated). The test is described as follows: cell-based or functional assay.
The target of test [2] is T2, human PAI-1 (human, UniProt P05121 24-402). The experiment in a line: cell-based or functional assay.
Test [3] has as its target T1, glycosylated human PAI-1 (active form). The test is described as follows: SPR Biacore 2000, mAb captured by anti-Fc, single-cycle kinetics, 1:1 model. As for the experimental part:
First, the surface of a Sensor Chip CM5 (GE Healthcare, Uppsala, Sweden) was prepared using routine amine coupling for the capture of the mouse and human anti-Fc (Anti-human IgG (Fc) antibody & Anti-mouse IgG antibody kits, GE Healthcare). All monoclonal antibodies (mAbs) were diluted to 5 nM using HBS-EP running buffer. Each purified mAb was captured for three minutes on a different flow cell surface. Human PAI-1 was injected at various concentrations (2.5, 5, 10, 20 and 40 nM) with short dissociation times in between and a long dissociation time at the end (contact time: 120 seconds, short dissociation: 90 seconds; long dissociation: 1800 seconds, flow rate: 50 μl/min). The chip was regenerated by glycine-HCl, pH 1.7 buffer after each round of antibody-PAI-1 binding. Kinetics data analysis was performed using Biacore BIAevaluation software. The sensorgrams were double-referenced by subtracting the reference flow cell values and the blank buffer values. The sensorgrams were fitted by using the simulated kinetics 1:1 (Langmuir) model with local Rmax. (see FIG. 19).
On the technique in general: In SPR one partner is held on a chip, and binding of the other changes the refractive index at the surface.

Test [4] has the same target. The experiment in a line: cell-based or functional assay. This is another data set of the same source.
A further test deals with T3, cynomolgus PAI-1 (cynomolgus monkey (Macaca fascicularis), UniProt P05121 24-402 (human entry)).
T3 construct: produced in-house in E. coli (non-glycosylated); active cyno PAI-1 in the assays; also called cyno PAI-1; cPAI-1
The test is described as follows: Biacore, hybridoma supernatant.

The target in test [5] is T2, human PAI-1. The test is described as follows: Biacore, hybridoma supernatant.
Test [6] has as its target T1, glycosylated human PAI-1 (active form). The experiment in a line: cell-based or functional assay. The source holds these as a separate data set.
Test [7] deals with T2, human PAI-1. The test is described as follows: Biacore reverse assay, mAb captured by anti-mouse IgG Fc, 25 C. As for the experimental part: (§1) In kinetics measurement, the antibodies were evaluated in reverse at 25° C. In the reverse assay, PAI-1 antibodies were captured to the anti-mouse IgG Fc antibody surface prepared on CM5 chip followed by injecting the serial 2× dilutions of PAI-1 proteins (human or cyno) starting at 40 nM. A high flow rate was chosen at 50 ul/min to avoid mass transportation limitation. Two thousand seconds was allowed for dissociation time to accommodate for the slow off rate of the selected antibodies. The chip was regenerated by glycine-HCl, pH 1.7 buffer after each round of antibody-PAI-1 binding. Kinetics data analysis was performed using Biacore BIAevaluation software. The sensorgrams were double-referenced by subtracting the reference flow cell values and the blank buffer values. The sensorgrams were fitted by using the simulated kinetics 1:1 (Langmuir) model with local Rmax.

Test [8] has as its target T1, glycosylated human PAI-1 (active form). The experiment in a line: Biacore (summary table). As for the experimental part:
as §1

Test [9] deals with T2, human PAI-1. The experiment in a line: cell-based or functional assay. This is another data set of the same source.
The target in test [10] is T4, cyno PAI-1 captured on immobilized human vitronectin (cynomolgus monkey; human, UniProt P04004 20-478, limits assumed).
T4 construct: non-covalent complex formed on the chip; also called cPAI-1/Vn
The test is described as follows: Biacore, cPAI-1 on vitronectin chip, two state reaction model (ka1).

The target in test [11] is T4, cyno PAI-1 captured on immobilized …. The test is described as follows: Biacore, cPAI-1 on vitronectin chip, two state reaction model (kd1).
For test [12], the target named is T5, human PAI-1 captured on immobilized human vitronectin (human, UniProt P04004 20-478).
T5 construct: non-covalent complex formed on the chip or plate; also called PAI-1/Vn complex; Vn captured hPAI-1
The test is described as follows: Biacore, hPAI-1 on vitronectin chip, two state reaction model.

Test [13] deals with T5, human PAI-1 captured on immobilized …. The experiment in a line: Biacore, hPAI-1 on vitronectin chip, two state reaction model (ka1).
Test [14] concerns the target T2, human PAI-1. The test is described as follows: cell-based or functional assay. This is another data set of the same source.
In test [15] the target is T4, cyno PAI-1 captured on immobilized …. The experiment in a line: Biacore, cPAI-1 on vitronectin chip, two state reaction model.
Test [16] deals with T5, human PAI-1 captured on immobilized …. The experiment in a line: Biacore, hPAI-1 on vitronectin chip, two state reaction model (kd1).

Substitutions are numbered along the chain they refer to. Where only a bound is given, the exact number is not on record here.

T1 sequence (P05121 24-402 limits assumed): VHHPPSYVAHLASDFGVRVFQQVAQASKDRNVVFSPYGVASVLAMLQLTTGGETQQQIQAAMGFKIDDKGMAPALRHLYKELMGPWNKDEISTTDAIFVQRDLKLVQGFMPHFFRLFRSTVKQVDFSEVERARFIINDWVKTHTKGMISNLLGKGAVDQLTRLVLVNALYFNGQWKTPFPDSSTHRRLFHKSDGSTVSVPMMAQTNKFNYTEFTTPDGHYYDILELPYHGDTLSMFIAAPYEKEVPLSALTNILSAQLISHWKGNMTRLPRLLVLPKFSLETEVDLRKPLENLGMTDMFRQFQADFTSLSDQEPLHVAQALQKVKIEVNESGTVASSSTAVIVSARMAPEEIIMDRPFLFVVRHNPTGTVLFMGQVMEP
T5 sequence (chain, as listed by the source limits assumed, chain 1 of 2): as the sequence (P05121 24-402 limits assumed) above
T5 sequence (P04004 20-478 limits assumed, chain 2 of 2): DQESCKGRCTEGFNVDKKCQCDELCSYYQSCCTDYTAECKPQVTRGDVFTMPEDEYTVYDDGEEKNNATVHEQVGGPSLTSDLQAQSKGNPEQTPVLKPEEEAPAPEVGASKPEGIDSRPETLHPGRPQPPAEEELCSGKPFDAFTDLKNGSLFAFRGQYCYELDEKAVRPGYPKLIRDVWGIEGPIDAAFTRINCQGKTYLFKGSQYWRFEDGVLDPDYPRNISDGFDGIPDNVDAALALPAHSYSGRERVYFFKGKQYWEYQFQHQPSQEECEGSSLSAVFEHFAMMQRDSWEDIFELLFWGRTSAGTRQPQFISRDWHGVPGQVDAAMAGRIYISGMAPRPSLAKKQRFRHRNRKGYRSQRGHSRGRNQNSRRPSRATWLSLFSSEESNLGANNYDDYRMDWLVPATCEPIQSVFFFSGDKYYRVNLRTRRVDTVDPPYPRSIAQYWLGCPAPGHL
T2 sequence (P05121 24-402 limits assumed): as the sequence (P05121 24-402 limits assumed) above
T4 sequence (chain, as listed by the source limits assumed, chain 1 of 2): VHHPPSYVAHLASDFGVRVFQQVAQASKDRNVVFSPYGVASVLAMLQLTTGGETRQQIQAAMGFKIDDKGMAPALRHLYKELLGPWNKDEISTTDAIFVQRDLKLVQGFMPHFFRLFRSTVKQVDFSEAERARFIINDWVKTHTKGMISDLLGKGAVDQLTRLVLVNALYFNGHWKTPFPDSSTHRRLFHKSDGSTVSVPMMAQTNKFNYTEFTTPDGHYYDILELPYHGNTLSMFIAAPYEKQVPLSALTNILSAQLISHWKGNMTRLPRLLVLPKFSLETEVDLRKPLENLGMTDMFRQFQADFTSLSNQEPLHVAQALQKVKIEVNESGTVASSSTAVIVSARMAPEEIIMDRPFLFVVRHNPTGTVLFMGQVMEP
T4 sequence (P04004 20-478 limits assumed, chain 2 of 2): as the sequence (P04004 20-478 limits assumed, chain 2 of 2) above

B1: APG (antibody, V domains shown)
VH: QVKLQESGPELVKPGASVKISCKASGYSFTDYNMNWVKQSKGKSLEWIGIIHPNSGTTTYNQKFKGKATLTVDQSSSTAYLQLNSLTSEDSAVYYCARSKLRFFDYWGQGTTVTVSS
VL: DIKLTQSPSSMYASLGERVTITCKASQDIYSYLSWFQQKPGKSPKTLIYRANRLIDGVPSRFSGSGSGQDYSLTISSLEYEHMGIYYCLQYDEFPFTFGSGTKLEIK
notes: murine anti-PAI-1 antibody of DE2000153251; also called mAPG; mouse APG
As to B1, in test [1], the “human plasma clot lysis, IC50” value amounted to 2.34 nM and the “human plasma clot lysis, Imax @ 100 nM” value was found to be 123%. In the test with human PAI-1 [2], the “PAI-1 activity in human plasma (uPA-PAI-1 complex ELISA), IC50abs” value (from here on “PAI-1 activity in human plasma … IC50abs”) was found to be 1.81 nM and the “PAI-1 activity in human plasma (uPA-PAI-1 complex ELISA), Imax” value (shortened to “PAI-1 activity in human plasma … Imax”) is 89.7%. In addition, in test [3], binding was characterised by a dissociation constant (Kd) of 0.113 nM and the koff came out at 0.000432 s⁻¹.

B2: A71 (antibody, mouse IgG1, V domains shown)
VH: QVQLQQSGAELMKPGASVKISCKATGFTFSTYWIEWIKQRPGHGLDWIGEILPGSGNTNYNEKFKGKATFTADTSSNTVYMQLSSLTSEDSAVYYCARGGLYYNLDSWGQGTTLTVSS
VL: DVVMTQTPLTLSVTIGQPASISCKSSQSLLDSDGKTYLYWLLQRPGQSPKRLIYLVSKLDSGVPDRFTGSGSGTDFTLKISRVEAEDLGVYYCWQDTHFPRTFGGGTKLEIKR
notes: mouse IgG1/kappa; also called mA71; A71 (IgG1/k)
As for B2, in test [4], the “plasmin generation, hepatic stellate cells, IC50abs” value (“plasmin generation … IC50abs” for short) is 8.61 nM and the “plasmin generation, hepatic stellate cells, Imax” value (shortened to “plasmin generation … Imax”) was found to be 90%. Also, the binding result in the test with cynomolgus PAI-1 was “binds”. For the same molecule, the koff in the test with human PAI-1 [5] was not above 0.0001 s⁻¹. For the same molecule, in test [6], the “Chromogenic Assays” value was approximately 4 nM and the “Plasmin Generation” value worked out at 8.61 nM.

B3: A105 (antibody, mouse IgG1, V domains shown)
VH: B2 VH with T31I, I37V, H43L, D46E, N57S, V79A, Y80F, N104D, S107Y, T113I
VL: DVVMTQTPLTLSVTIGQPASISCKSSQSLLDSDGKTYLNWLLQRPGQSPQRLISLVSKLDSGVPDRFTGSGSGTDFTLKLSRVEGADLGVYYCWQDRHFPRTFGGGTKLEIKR
notes: mouse IgG1/kappa; also called mA105; A105 (IgG1/k)
Turning to B3, in test [4], the “plasmin generation … IC50abs” value amounted to 27 nM and the “plasmin generation … Imax” value stood at 88%. For the same molecule, in the test with human PAI-1 [7], the Kd stood at 0.0423 nM and the koff worked out at 0.000164 s⁻¹. Further, the binding result with cynomolgus PAI-1 is “binds”. The molecule also gave an off-rate (koff) in the test with human PAI-1 [5] not above 0.0001 s⁻¹. Besides, in test [6], the “Chromogenic Assays” value is 7 nM and the “Plasmin Generation” value was found to be 27 nM. In [8], binding was characterised by a dissociation constant (Kd) of 0.042 nM.

B4: E16 (antibody, mouse IgG1, V domains shown)
VH: EVKLVESGGGLVKPGGSLKLSCAASGFTFSNYGMSWVRQTPEKGLGWVASLRTGGNTYYSDSVKGRFTISRDNDRNILYLQMSSLTSEDTAVYYCARGLRHWGYFDVWGAGTTVTVSS
VL: DIVMTQSHKFMSTSVGDRVNITCKASQDVSTAVGWYQQEPGQSPKLLIYSASNRHTGVPDRFTGSGSGTDFTFTISSVQAEDLAVYYCQQHYSSPWTFGGGTKLEIK
notes: mouse IgG1; also called mE16; E16 (IgG1)
With B4, in [4], the “plasmin generation … IC50abs” value amounted to 4.74 nM and the “plasmin generation … Imax” value is 95%. The molecule also gave a koff in the test with human PAI-1 [5] not above 0.0001 s⁻¹. For the same molecule, the “EC50, % neutralization of hPAI-1 (chromogenic assay)” value with human PAI-1 [9] was determined as 1.24 nM. In test [6], the “Chromogenic Assays” value is 1.1 nM and the “Plasmin Generation” value turned out to be 4.74 nM.

B5: E21 (antibody, mouse IgG2b, V domains shown)
VH: EVQLQQSGAELVRSGASVKLSCTASGFNIKDYYMHWVKQRPEQGLEWIGWIDPENGDTEYDPKFQAKATMTADTSSNTAYLQLSSLTSEDTAVYYCMYGNYPYYFDYWGQGTTLTVSS
VL: DIQMTQTTSSLSASLGDRVTISCRASQDISNYLNWYQQKPDGTVKLLIYYTSRLHSGVPSRFSGSGSGTDYSLTISNLEQEDIATYFCQQGNTLPWTFGGGTKLEIK
notes: mouse IgG2b; also called mE21; E21 (IgG2b)
In turn, B5 came in with a koff with human PAI-1 [5] not above 0.0001 s⁻¹. Also, in the test with human PAI-1 [9], the “EC50, % neutralization of hPAI-1 (chromogenic assay)” value is 1.08 nM. For the same molecule, in [6], the “Chromogenic Assays” value was 1.3 nM and the “Plasmin Generation” value turned out to be 216 nM.

B6: A44-hv7 (antibody, V domains shown)
VH: QMTLKESGPTLVKPTQTLSLTCSVSGESMTQGYWNWIRQFPGKALEYMGYITYSGSTYYNPSLKGRITITRQTSKNQYYLTLSSVTTVETATYYCARWHYGSPYYFDYWGQGTTLTVSS
VL: DIKMTQSPSSLSASVGDRVTITCKASQDINSYLSWLQQKPGKSPKTLIYRAQRSVEGVPSRFSGSGSGQDYSLTISSLQPEDLATYYCLQYDEFPPTFGGGTKLEIK
notes: humanized A44, HEK293; constant regions as for A44-hv1; also called LC4 x HC4; variant 7
Consider B6, for which the kon came to 2.5e+06 M⁻¹ s⁻¹ in test [10] and 4.14e+06 M⁻¹ s⁻¹ in [13]. In addition, the koff in test [11] was 0.000239 s⁻¹; in test [16], 0.000394 s⁻¹. Further, the Kd came to 0.0964 nM in test [12] and 0.0956 nM in test [15]. The “Chromogenic Assay IC50” value with human PAI-1 [14] is 0.59 nM.

B7: APGv2 (antibody, V domains shown)
VH: QVQLVQSGSELKKPGASVKVSCKASGYSFTDYNMNWVRQAPGQGLEWIGIIHPNSGTTTYNQKFKGRAVLSVDQSVSTAYLQISSLKAEDTAVYYCARSKLRFFDYWGQGTLVTVSS
VL: DIQLTQSPSSLSASVGDRVTITCKASQDIYSYLSWFQQKPGKAPKTLIYRANRLIDGVPSRFSGSGSGQDYTFTISSLQPEDIATYYCLQYDEFPFTFGQGTKLEIK
notes: humanized APG; captured by anti-human IgG (Fc); also called APG variant 2
For B7, in test [1], the “human plasma clot lysis, IC50” value came out at 2.08 nM and the “human plasma clot lysis, Imax @ 100 nM” value was 114%. Besides, in the test with human PAI-1 [2], the “PAI-1 activity in human plasma … IC50abs” value is 0.962 nM and the “PAI-1 activity in human plasma … Imax” value is 94.5%. For the same molecule, in test [3], the Kd is 0.0408 nM and the koff was 0.000269 s⁻¹.

B8: APGv4 (antibody, V domains shown)
VH: B7 VH with S9A, L11V, V69T, S71T, V76T, L81M, Q82E, I83L, K87R, A88S
VL: B7 VL
notes: humanized APG; captured by anti-human IgG (Fc); also called APG variant 4
As to B8, in [1], the “human plasma clot lysis, IC50” value is 2.82 nM and the “human plasma clot lysis, Imax @ 100 nM” value was 116%. In the test with human PAI-1 [2], the “PAI-1 activity in human plasma … IC50abs” value was determined as 1.28 nM and the “PAI-1 activity in human plasma … Imax” value amounted to 94.4%. For the same molecule, in test [3], the Kd stood at 0.038 nM and the koff came to 0.000359 s⁻¹.

A word on the Kd: it is a measure of binding affinity in units of concentration. Usually koff stands for a measure of how fast the partners let go of each other. Usually kon stands for the second-order rate constant of association.
